The record followed here is patent publication US12459974B2, “Bicyclic peptide ligands specific for Nectin-4” (priority 2018, dated 2025).

As a reminder, the Ki is a measure of affinity in units of concentration, obtained from inhibition or displacement.

*1 amine or outer side, *2 acyl side, *3 side chain or, on linkers, in order; H or OH if unused. Where a SMILES comes first, the peptide text is derived from it. Bridges are numbered along the chain shown (N, C = ends). Roman numbers before positions name the chains, in order. [ ]: non-standard residue; d: D form. The star is where a group is joined. TATA = O=C(CC[*:1])N1CN(C(=O)CC[*:2])CN(C(=O)CC[*:3])C1; Dolaproine = CO[C@@H]([C@@H]1CCCN1)[C@@H](C)C(=O)O; Dil = CC[C@H](C)[C@H](NC)[C@@H](CC(=O)O)OC; 1Nal = N[C@@H](Cc1cccc2ccccc12)C(=O)O; X3 = O=C(CCCC(=O)[*:2])NCCC(=O)[*:1]; PABC = O=C(OCc1ccc(N[*:1])cc1)[*:2]; X4 = C[C@@H](N*)[C@@H](O)c1ccccc1; Hyp = O=C(O)[C@@H]1C[C@@H](O)CN1; hArg = N=C(N)NCCCC[C@H](N)C(=O)O; Cit = NC(=O)NCCC[C@H](N)C(=O)O; NMeV = CN[C@H](C(=O)O)C(C)C; Sar = CNCC(=O)O

For one data set, the system named is NCI-H292 xenograft. Kind of data set: Example 1: in vivo efficacy in NCI-H292 xenograft (NSCLC model) in BALB/c nude mice. On the set-up: species or system Mus Musculus. As to conditions: 5 mg/kg.
In a further data set the target is T1, human Nectin-4 (Homo sapiens, UniProt Q96NY8).
T1 sequence (Q96NY8 32-510): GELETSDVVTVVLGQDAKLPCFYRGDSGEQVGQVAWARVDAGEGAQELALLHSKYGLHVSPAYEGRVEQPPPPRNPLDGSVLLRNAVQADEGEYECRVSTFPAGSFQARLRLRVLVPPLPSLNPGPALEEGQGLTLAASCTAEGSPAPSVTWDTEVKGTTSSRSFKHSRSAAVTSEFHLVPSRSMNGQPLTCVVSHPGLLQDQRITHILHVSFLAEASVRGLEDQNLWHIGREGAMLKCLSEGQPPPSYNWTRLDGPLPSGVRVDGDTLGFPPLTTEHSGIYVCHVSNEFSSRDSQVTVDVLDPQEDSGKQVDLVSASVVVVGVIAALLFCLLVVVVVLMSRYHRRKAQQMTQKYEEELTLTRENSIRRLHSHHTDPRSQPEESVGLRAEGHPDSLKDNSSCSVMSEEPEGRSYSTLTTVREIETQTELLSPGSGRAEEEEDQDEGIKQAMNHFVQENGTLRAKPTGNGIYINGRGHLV
Kind of data set: Nectin-4 competition binding assay (fluorescence polarisation). The conditions noted are these: competition with fluorescent peptide SEQ ID NO: 217; read-out: Ki. An outline of the steps:
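Ki derived by cubic-equation fit of mP data, with tracer peptide concentration, its Kd and Nectin-4 level as fixed inputs. Competition set up by adding 2-fold peptide dilutions (≤5% DMSO), then Nectin-4, then fluorescent peptide; polarisation measured as for direct binding.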
On the technique in general: Polarisation of emitted light reports the rotation of a fluorescent probe.

Method for NCI-H292 xenograft: The major endpoint was to see if the tumor growth could be delayed or mice could be cured. Tumor volume was measured three times weekly in two dimensions using a caliper, and the volume was expressed in mm^3 using the formula: V=0.5 a×b^2 where a and b are the long and short diameters of the tumor, respectively. The tumor size was then used for calculations of T/C value. The T/C value (in percent) is an indication of antitumor effectiveness; T and C are the mean volumes of the treated and control groups, respectively, on a given day. TGI was calculated for each group using the formula: TGI (%)=[1−(Ti−T0)/(Vi−V0)]×100; Ti is the average tumor volume of a treatment group on a given day, T0 is the average tumor volume of the treatment group on the day of treatment start, Vi is the average tumor volume of the vehicle control group on the same day with Ti, and V0 is the average tumor volume of the vehicle group on the day of treatment start.
A one-way ANOVA was performed to compare tumor volume among groups, and when a significant F-statistics (a ratio of treatment variance to the error variance) was obtained, comparisons between groups were carried out with Games-Howell test. All data were analyzed using GraphPad Prism 5.0. P<0.05 was considered to be statistically significant.
The NCI-H292 tumor cells will be maintained in medium supplemented with 10% heat inactivated fetal bovine serum at 37° C. in an atmosphere of 5% CO2 in air. The tumor cells will be routinely subcultured twice weekly. The cells growing in an exponential growth phase will be harvested and counted for tumor inoculation.
Each mouse will be inoculated subcutaneously at the right flank with NCI-H292 tumor cells (10×10^6) in 0.2 ml of PBS for tumor development. The animals will be randomized and treatment will be started when the average tumor volume reaches approximately 158-406 mm^3.

In the case of `CC[C@H](C)[C@@H]([C@@H](CC(=O)N1CCC[C@H]1[C@H](OC)[C@@H](C)C(=O)N[C@H](C)[C@@H](O)c1ccccc1)OC)N(C)C(=O)[C@@H](NC(=O)[C@H](C(C)C)N(C)C(=O)OCc1ccc(NC(=O)[C@H](CCCNC(N)=O)NC(=O)[C@@H](NC(=O)CCCC(=O)NCCC(=O)N(C)CC(=O)N(C)CC(=O)N(C)CC(=O)N(C)CC(=O)N(C)CC(=O)N[C@H]2CSCCC(=O)N3CN4CN(C3)C(=O)CCSC[C@H](NC(=O)[C@@H](CC(=O)O)NC(=O)[C@H](Cc3ccccc3)NC(=O)[C@@H]3CCCN3C2=O)C(=O)N[C@@H](CCSC)C(=O)N[C@@H](CCCCNC(=N)N)C(=O)N[C@@H](CC(N)=O)C(=O)N[C@@H](Cc2c[nH]c3ccccc23)C(=O)N[C@@H](CO)C(=O)N[C@@H](Cc2c[nH]c3ccccc23)C(=O)N2CCC[C@H]2C(=O)N[C@@H]([C@@H](C)CC)C(=O)N[C@@H](Cc2c[nH]c3ccccc23)C(=O)N[C@H](C(N)=O)CSCCC4=O)C(C)C)cc1)C(C)C` [BCY7683, MMAE-PABC-Cit-Val-Glutaryl-BCY7556] (I: [Sar][Sar][Sar][Sar][Sar]CPF[dD]CM[hArg]NWSWPIWC-NH2 / II: V[Cit][PABC][NMeV]V[Dil][Dolaproine]-X4; linker I:6-I:10-I:20 via TATA; linker I:N-II:N via X3), the “bodyweight (in words)” value in the data set on NCI-H292 xenograft was “severe bodyweight loss”.

`CSCC[C@@H]1NC(=O)[C@@H]2CSCCC(=O)N3CN(CN(C3)C(=O)CCSC[C@H](NC(C)=O)C(=O)N3CCC[C@H]3C(=O)N[C@@H](Cc3cccc4ccccc34)C(=O)N[C@H](CCCNC(=N)N)C(=O)N2)C(=O)CCSC[C@@H](C(N)=O)NC(=O)[C@H](Cc2c[nH]c3ccccc23)NC(=O)[C@@H]2C[C@@H](O)CN2C(=O)[C@@H]2CCCN2C(=O)[C@H](CO)NC(=O)[C@H](CO)NC(=O)[C@H](Cc2c[nH]c3ccccc23)NC(=O)[C@H](CC(=O)O)NC(=O)[C@H](CCCCNC(=N)N)NC1=O` [BCY8191, Ac-(SEQ ID NO: 195)] (Ac-CP[1Nal][dR]CM[hArg]DWSSP[Hyp]WC-NH2; linker 1-5-15 via TATA; C-terminus assumed): the Ki on human Nectin-4 was 4.5 nM.
